Measurements as given in article PMC10875621.

Biological target: netrin-1 (UniProt O95631)

percent of DCC-HaloTag speckles in grip (immobile) phase in growth-cone filopodia of hippocampal neurons on netrin-1-coated substrate, TIRF speckle imaging (15% grip on polylysine alone): 40%
Substance: DCC-HaloTag (from UniProt P43146 26-1447) (receptor)
